B1: His6-Atg16 L71C (natural protein, S. cerevisiae, UniProt Q03818 1-150, looked up)
chain: MGNFIITERKKAKEERSNPQTDSMDDLLIRRLTDRNDKEAHLNELFQDNSGAIGGNIVSHDDALLNTLAICQKELKSKEQEIRRLKEVIALKNKNTERLNDELISGTIENNVLQQKLSDLKKEHSQLVARWLKKTEKETEAMNSEIDGTK
B2: Atg16 L71C L85C L99C L120C (natural protein, S. cerevisiae, UniProt Q03818 1-150, looked up)
chain: MGNFIITERKKAKEERSNPQTDSMDDLLIRRLTDRNDKEAHLNELFQDNSGAIGGNIVSHDDALLNTLAICQKELKSKEQEIRRCKEVIALKNKNTERCNDELISGTIENNVLQQKLSDCKKEHSQLVARWLKKTEKETEAMNSEIDGTK
B3: Atg16 L71C L120C (natural protein, S. cerevisiae, UniProt Q03818 1-150, looked up)
chain: MGNFIITERKKAKEERSNPQTDSMDDLLIRRLTDRNDKEAHLNELFQDNSGAIGGNIVSHDDALLNTLAICQKELKSKEQEIRRLKEVIALKNKNTERLNDELISGTIENNVLQQKLSDCKKEHSQLVARWLKKTEKETEAMNSEIDGTK

Target: the molecule itself
Assay: cross-linking

Stoichiometry N, 2:
B1, B2, B3
